Among the data in publication PMC13694701 (2026) are Kd values, retold here.

The target in experiment [1] is TRIM62 PRY-SPRY (Homo sapiens, UniProt Q9BVG3). The experiment can be described thus: MST.
The target of experiment [2] is TRIM62 (Homo sapiens, UniProt Q9BVG3). The experiment can be described thus: MST.
Sequence of TRIM62 (Q9BVG3 whole entry): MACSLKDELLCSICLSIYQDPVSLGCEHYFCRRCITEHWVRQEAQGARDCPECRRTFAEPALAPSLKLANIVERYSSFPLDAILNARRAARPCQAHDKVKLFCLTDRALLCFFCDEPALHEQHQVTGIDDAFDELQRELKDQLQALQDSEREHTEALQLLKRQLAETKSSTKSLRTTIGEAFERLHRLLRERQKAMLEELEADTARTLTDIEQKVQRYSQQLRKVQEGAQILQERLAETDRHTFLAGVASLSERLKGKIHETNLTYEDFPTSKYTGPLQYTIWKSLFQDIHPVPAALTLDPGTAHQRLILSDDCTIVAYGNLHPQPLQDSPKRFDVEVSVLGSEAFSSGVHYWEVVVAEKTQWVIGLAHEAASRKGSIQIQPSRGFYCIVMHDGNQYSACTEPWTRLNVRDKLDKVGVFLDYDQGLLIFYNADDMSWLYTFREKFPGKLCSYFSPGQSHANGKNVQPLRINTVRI

Sequence of TRIM62 PRY-SPRY (Q9BVG3 277-475): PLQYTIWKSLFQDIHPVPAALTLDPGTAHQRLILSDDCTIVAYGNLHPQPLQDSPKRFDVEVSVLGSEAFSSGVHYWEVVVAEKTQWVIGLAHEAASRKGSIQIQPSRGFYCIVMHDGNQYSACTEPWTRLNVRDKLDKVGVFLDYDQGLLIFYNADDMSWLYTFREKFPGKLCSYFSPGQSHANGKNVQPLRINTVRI

B1: FAM21 1-356 (protein)
chain: MMNRTTPDQELVPASEPVWERPWSVEEIRRSSQSWSLAADAGLLQFLQEFSQQTISRTHEIKKQVDGLIRETKATDCRLHNVFNDFLMLSNTQFIENRVYDEEVEEPVLKAEAEKTEQEKTREQKEVDLIPKVQEAVNYGLQVLDSAFEQLDIKAGNSDSEEDDANGRVELILEPKDLYIDRPLPYLIGSKLFMEQEDVGLGELSSEEGSVGSDRGSIVDTEEEKEEEESDEDFAHHSDNEQNQHTTQMSDEEEDDDGCDLFADSEKEEEDIEDIEENTRPKRSRPTSFADELAARIKGDAMGRVDEEPTTLPSGEAKPRKTLKEKKERRTPSDDEEDNLFAPPKLTDEDFSPFGS
For B1, the values for the Kd in experiment [1] and in experiment [2] were 44.9 µM and 0.4 µM, respectively.

Broadly, the Kd is the concentration at which binding is half-saturated. Lower therefore signals tighter binding.
